According to patent publication US20230001007A1, “Glycan-Interacting Compounds and Methods of Use” (Seagen Inc., priority 2017, published 2023):

Assays:
[1] = test system: array glycans (AcSTn, GcSTn, Tn and others); assay: Glycan array analysis; type: binding; parameters: key: Group 1: capable of binding AcSTn and GcSTn, if they bind to glycans 5, 6, 23 and 24; Group 2: capable of binding STn as well as some related structures that include an O-linkage to serine or threonine, if they bind to glycans 5, 6, 23, 24, 27 and 31; Group 3: capable of binding STn, but may also bind a broader set of related structures) if they bind glycans 5, 6, 23, 24, 17, 3, 19, 37, 27 and 31; Group 4: capable of binding to both AcSTn and GcSTn as well as the un-sialylated Tn antigen (therefore having broader specificity) if they bind to glycans 5, 6, 23, 24 and 47
Experimental: Optimized glycan arrays are utilized to test antibody affinity and specificity for multiple glycans in a single experiment. Glycan arrays include 71 chemically synthesized and well-defined glycans, most of which are Neu5Ac and Neu5Gc glycan pairs.
300 ml of epoxy blocking buffer is prepared by combining 15 ml of 2 M Tris buffer (pH 8) with 0.9 ml of 16.6 M ethanolamine and 284.1 ml of distilled water. The solution is brought to a final pH of 9.0 with HCl. The solution is filtered using a […] nitrocellulose membrane. The epoxy buffer solution as well as 1 L of distilled water are pre-warmed to 50° C. Glass slides are arranged in a slide holder and quickly submerged in a staining tub with the warmed epoxy blocking buffer. Slides are incubated in the epoxy blocking buffer for 1 hour at 50° C. with periodic shaking to deactivate epoxy binding sites. Next, slides are rinsed and blocked with PBS with 1% OVA at 25° C. for one hour. Serum samples with polyclonal antibodies (1:1000) or purified monoclonal antibodies (1 ug/mL), are diluted in PBS with 1% OVA and added to the glycan array for one hour at 25° C. After extensive washing, binding of antibodies are detected by incubating glycan microarray slides with Cy3-conjugated anti-mouse IgG (Jackson Immunoresearch, West Grove, Pa.) for one hour. Slides are then washed extensively, dried and scanned with a Genepix 4000B scanner (Laser at 100%; gain at 350; 10 μm pixels). Raw data from scanned images are extracted using the Genepix software and analysis of raw data is carried out.
Based on array analysis, antibodies are classified according to array glycan binding profile. Antibodies are classified as “Group 1” antibodies, capable of binding AcSTn and GcSTn, if they bind to glycans 5, 6, 23 and 24. Such antibodies are referred to as Pan-STn antibodies due to their ability to associate with a wider range of STn structures and the portion of STn indicated by the largest ellipse in FIG. 1A. […]

[2] = test system: MDA-MB-231-STn cells; assay: Flow cytometry-based binding analysis; details: 0 to 300 nM, read-out: MDA-MB-231-STn cell binding [EC50 (nM)]
Experimental: Humanized IgG1 antibodies, prepared as described above, were subjected to characterization analysis including flow cytometry-based binding analysis with MDA-MB-231-STn cells; binding analysis by BSM ELISA; and glycan array analysis.
In flow cytometry-based binding studies, antibodies were screened over a concentration range of 0 to 300 nM, comparing binding to MDA-MB-231 cells with or without transfection-induced STn expression. Binding was determined using an anti-human APC conjugated secondary antibody and only live cells were considered (based on propidium iodide negative gating). 5,000 events were collected per sample on average. Data were analyzed using FlowJo software (Asland, Oreg.) and resulting APC means and % APC were obtained. […] Human isotype IgG1 antibody was used as an isotype negative control. Epidermal growth factor receptor (LA22, EMD Millipore, Billerica, Mass.) was used as a positive control.

[3] = test system: RKO; assay: STn expression on CRC line by flow cytometry using anti-STn antibodies; type: cell-based; details: detected using hSIA101
Experimental: (§1) Mouse antibodies were characterized for in vitro and in vivo efficacy in breast, colon and ovarian cancer models. The antibodies were used to identify CRC cell lines that express STn on the surface. Five CRC lines were incubated in vitro and grown to confluency. % STn expression was determined by flow cytometry using anti-STn antibodies. Approximately 30-70% of cultured SW403, COL0205 and LS174T cells naturally expressed STn on the surface (as detected using mSIA103), while HT29 and RKO had very little to no detectable STn (as detected using hSIA101) on their cell surface (see Table 6).

[4] = test system: HT29; assay: as above; type: cell-based; details: detected using hSIA101
Experimental: as §1

[5] = test system: normal human tissues; assay: Tissue cross-reactivity study, frozen tissue sections; type: binding; parameters: key to tissue staining: 1+=weak staining; 2+=moderate staining; 3+=strong staining; 4+=intense staining; Neg=negative; freq=frequent (staining in >75%-100% of cells); occ=occasional (staining in >25%-50% of cells); rare refers to staining in 1-5% of cells; details: for tissue staining: Human, 1-3 μg/ml
Experimental: Tissue cross-reactivity studies were conducted to assess the binding profile (both on- and potential off-target binding) to human and relevant species used in nonclinical safety testing. Humanized anti-STn antibodies were examined for binding to a panel of normal human, rat, mouse, and cynomolgus monkey tissues. The study was conducted on […] normal frozen tissue sections at 1-3 μg/ml: heart, brain, kidney, stomach, lung, small intestines, colon, liver, pancreas, spleen and bone marrow. The positive control was a human pancreatic neoplasm that contained STn positive cancer cells and the negative control was normal stromal cells contained within the same specimen. Staining across all normal tissues was restricted to the cytoplasm. Additional analyses were conducted without primary antibody or using isotype control IgG as negative controls.
Antibodies were also found to cross react with similar types of tissue from Cynomolgus monkey (see Table 17) and rat (not shown).

B1: hSIA101 (antibody, V domains shown)
VH: EVQLVQSGAEVKKPGASVKVSCKASGYTFTDHAIHWVRQAPGQGLEWMGYFSPGNDDIKYNEKFRGRVTMTADKSSSTAYMELRSLRSDDTAVYFCKRSLSTPYWGQGTLVTVSS
VL: DIVMTQSPDSLAVSLGERATINCKSSQSLLNRGNHKNYLTWYQQKPGQPPKLLIYWASTRESGVPDRFSGSGSGTDFTLTISSLQAEDVAVYYCQNDYTYPYTFGQGTKVEIK
[1]
  Array glycan binding profile: Group 1
[2]
  EC50: 2 nM
[3]
  % STn expression: Low to non-detectable
[4]
  % STn expression: Low to non-detectable
[5]
  staining of cerebrum, cerebellum, kidney and liver: did not stain
  staining of positive control tissue (pancreatic neoplasm): strong membrane staining
[5]; Colon Epithelial Cells
  tissue staining: 1+ freq (cytoplasm)
[5]; Colon Vessel
  tissue staining: Neg
[5]; Heart Vessel
  tissue staining: 2+ rare (cytoplasm)
[5]; Lung Epithelium
  tissue staining: Neg
[5]; Pancreas Vessel
  tissue staining: Neg
[5]; Small Intestine Epithelial Cells
  tissue staining: 2-4+ freq (cytoplasm)
[5]; Spleen Vessel
  tissue staining: 2-3+ freq (cytoplasm)
[5]; Stomach Epithelial Cells
  tissue staining: 2-3+ freq (cytoplasm)
[5]; Stomach Vessel
  tissue staining: Neg
[5]; among the three tested antibodies
  cross-reactivity with normal human tissues: lowest cross-reactivity
[5]; normal tissues
  staining on cell membranes in any tissue: No staining was observed
